According to patent US20230009582A1 (MEMO THERAPEUTICS, published 2023):
Each block holds one binder with its values, some of them ahead of it.

Legend:
[1] = target: T1, Siglec-7-Fc (in-house production); assay: ELISA, coated Siglec-7-Fc 1 µg/ml, single antibody concentration, anti-human Fab detection, Abs 450 nm, n=3
T1 construct: The entry holds the Siglec-7 part and the Fc together; also called Siglec-7-Fc protein
Experimental: (§1) Specificity towards Siglec-5, Siglec-7, Siglec-8, Siglec-15 and Siglec-9 was assayed in enzyme-linked immunosorbent assay (ELISA) using 96 well half-area ELISA plates (Corning). Siglec-5-Fc (R&D systems), Siglec-7-Fc (in-house production, Siglec-7-Fc protein used had the following amino acid sequence:
(§2) (SEQ ID NO: 59)) […] […] […] […] […] […] […] […] […] […] […] […], Siglec-8-Fc (R&D systems), Siglec-15- Fc (R&D systems) and Siglec-9-Fc (in-house production, SEQ ID NO: 11) were coated at 1 μg/ml in 50 mM carbonate-bicarbonate buffer pH 9.6 for 15-20 hours at 4° C.
(§3) Antigens were washed away (Tecan Hydrospeed) and plates were blocked with 5% skimmed milk in phosphate-buffered saline (PBS). After washing the plates, antibodies were added at 5 μg/ml (33 nM) in 0.5% milk PBS in triplicates. Plates with antibodies were incubated for 1 hour at room temperature. Plates were washed and bound antibodies were detected by horseradish peroxidase (HRP)-labeled polyclonal anti-rabbit IgG antibody (Biolegend) or anti-human Fab fragment for mAbA (Sigma Aldrich). 3,3′,5,5′-Tetramethylbenzidine (TMB; Sigma Aldrich) development was stopped by addition of sulfuric acid and absorbance was detected at 450 nm (Tecan, CM […] MONO 200).

[2] = target: T2, Siglec-15-Fc (R&D systems) (UniProt Q6ZMC9 20-263, limits assumed); assay: ELISA, coated Siglec-15-Fc 1 µg/ml, single antibody concentration, anti-human Fab detection, Abs 450 nm, n=3
T2 construct: Bought reagent; not shown: Fc part of the bought fusion; not described
T2 sequence (looked up): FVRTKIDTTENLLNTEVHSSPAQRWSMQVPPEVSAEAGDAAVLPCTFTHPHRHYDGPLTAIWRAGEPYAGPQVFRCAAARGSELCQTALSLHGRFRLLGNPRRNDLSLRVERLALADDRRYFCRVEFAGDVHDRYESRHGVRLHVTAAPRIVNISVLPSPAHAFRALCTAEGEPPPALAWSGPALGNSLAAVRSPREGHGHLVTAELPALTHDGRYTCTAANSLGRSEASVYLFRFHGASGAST
Experimental: as §1, §2, §3

[3] = target: extra-cellular domain of Siglec-9 fused to a C-terminal his-tag (Homo sapiens (Human), UniProt Q9Y336 18-348); assay: ELISA, coated his-tagged Siglec-9 extracellular domain, anti-human Fc gamma detection, Abs 450 nm
From the text: (SEQ ID NO: 44) […] […] […] […] […] […] […]. For detection of bound IgG either polyclonal anti- rabbit IgG antibody (68D4; Biolegend, #406401), or anti-human Fey fragment (humanized 68D4 and mAbA; Jackson Immuno Research laboratories, #109-035-098) were used.

[4] = target: T1, Siglec-7-Fc (in-house production); assay: ELISA, coated Siglec-7-Fc 1 µg/ml, antibody at 5 µg/ml (33 nM), Abs 450 nm, n=3
Experimental: as §1, §2, §3

[5] = target: T3, Siglec-8-Fc (R&D systems) (UniProt Q9NYZ4 17-363, limits assumed); assay: ELISA, coated Siglec-8-Fc 1 µg/ml, single antibody concentration, Abs 450 nm, n=3
T3 construct: Bought reagent; not shown: Fc part of the bought fusion; not described
Experimental: as §1, §2, §3

[6] = target: T4, Siglec-9 expressed on cells (human, UniProt Q9Y336 18-463); assay: flow cytometry on human CD14+ monocytes in PBMC
T4 construct: also called monocyte-expressed Siglec-9
Experimental: (§4) Human ex vivo PBMC were stained with fluorescence-labeled (allophycocyanin, APC) antibody to the monocyte marker CD14 (Biolegend) in assay buffer (0.5% (v/v) heat-inactivated fetal bovine serum (Gibco), 2 mM EDTA in phosphate-buffered saline). Subsequently, cells were incubated with antibodies under evaluation at various concentrations (67 nM-0.38 pM). After a washing step cells were incubated with fluorescence-labeled (Brilliant Violet 421™) secondary antibody against human IgG (mAbA) or rabbit IgG (all other monoclonal antibodies under evaluation; both secondary antibodies from Biolegend).
(§5) Binding of Siglec-9-specific antibodies to monocytes (CD14-positive life cells) was analysed with a CytoFLEX flow cytometer (Beckham Coulter's). The mean fluorescence intensity of the secondary antibody staining in the CD14-positive population at each dilution was determined using Flow Jo software (BD). Datapoints generated by this analysis were fitted and EC50 values were determined by three-parameter analysis in GraphPad Prism (GraphPad Software)

[7] = target: Siglec-9 protein (construct not stated; antigen of Examples 3 and 4) (human, UniProt Q9Y336 18-348, limits assumed); assay: ELISA, coated Siglec-9 1 µg/ml, antibody titrated, Abs 450 nm, three-parameter fit, n=3
Experimental: FIG. 2: Binding curves of monoclonal antibodies (68D4 and 224B1; comparative monoclonal antibodies mAbA and 5C6 & negative control 53C3) towards Siglec-9 as analysed by ELISA. Binding of the monoclonal antibody to Siglec-9, as determined by measurement of the accumulated coloured product at 450 nm after stopping the reaction, is plotted against the concentration of the monoclonal antibody under evaluation.
Antibody binding affinity towards Siglec-9 was measured by a dilution series of the analysed antibodies on a fixed concentration of Siglec-9 protein in ELISA. To this end, Siglec-9 was coated at 1 μg/ml in 50 mM carbonate-bicarbonate buffer pH 9.6 for 15-20 hours at 4° C. Antigen solution was washed away (Tecan Hydrospeed) and plates were blocked with 5% skimmed milk in phosphate-buffered saline (PBS) for 1 hour at room temperature. Plates were washed and antibodies were added at concentrations of 0-420 nM. After incubation at room temperature for 1 hour plates were washed once more. Bound antibodies were detected by addition of horseradish peroxidase (HRP)-coupled secondary antibodies. Rabbit antibodies were detected by polyclonal anti-rabbit IgG antibody (Biolegend), mAbA by anti-human Fab fragment (Sigma Aldrich). After a last washing step, plates were developed by the addition of 3,3′,5,5′-Tetramethylbenzidine (TMB; Sigma Aldrich). Reaction was stopped by addition of sulfuric acid. Absorbance was detected at 450 nm (Tecan, CM […] MONO 200). Data were fitted and EC50 values were determined by three-parameter analysis in GraphPad Prism (GraphPad Software)

[8] = target: T2, Siglec-15-Fc (R&D systems); assay: ELISA, coated Siglec-15-Fc 1 µg/ml, single antibody concentration, Abs 450 nm, n=3
Experimental: as §1, §2, §3

[9] = target: T4, Siglec-9 expressed on cells; assay: flow cytometry on human CD14+ monocytes (PBMC), mean RFU of the secondary antibody, three-parameter fit
Experimental: as §4, §5

T1 sequence (chain, as listed by the source limits assumed): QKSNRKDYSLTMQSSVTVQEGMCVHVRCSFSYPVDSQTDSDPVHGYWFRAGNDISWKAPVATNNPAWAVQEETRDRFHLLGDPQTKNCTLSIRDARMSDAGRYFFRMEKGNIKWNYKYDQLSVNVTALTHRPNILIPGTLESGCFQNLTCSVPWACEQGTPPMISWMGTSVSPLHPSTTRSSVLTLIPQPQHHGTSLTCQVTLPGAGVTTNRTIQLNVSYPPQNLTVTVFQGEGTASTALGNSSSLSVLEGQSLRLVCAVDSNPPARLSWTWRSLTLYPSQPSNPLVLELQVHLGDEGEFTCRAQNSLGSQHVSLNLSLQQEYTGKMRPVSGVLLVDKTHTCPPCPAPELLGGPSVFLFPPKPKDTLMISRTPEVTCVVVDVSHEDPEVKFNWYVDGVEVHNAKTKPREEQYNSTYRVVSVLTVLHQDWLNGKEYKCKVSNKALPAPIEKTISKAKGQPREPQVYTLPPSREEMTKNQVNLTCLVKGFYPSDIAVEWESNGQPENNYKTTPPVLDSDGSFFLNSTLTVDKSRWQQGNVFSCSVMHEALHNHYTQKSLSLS
T4 sequence (Q9Y336 18-463 limits assumed): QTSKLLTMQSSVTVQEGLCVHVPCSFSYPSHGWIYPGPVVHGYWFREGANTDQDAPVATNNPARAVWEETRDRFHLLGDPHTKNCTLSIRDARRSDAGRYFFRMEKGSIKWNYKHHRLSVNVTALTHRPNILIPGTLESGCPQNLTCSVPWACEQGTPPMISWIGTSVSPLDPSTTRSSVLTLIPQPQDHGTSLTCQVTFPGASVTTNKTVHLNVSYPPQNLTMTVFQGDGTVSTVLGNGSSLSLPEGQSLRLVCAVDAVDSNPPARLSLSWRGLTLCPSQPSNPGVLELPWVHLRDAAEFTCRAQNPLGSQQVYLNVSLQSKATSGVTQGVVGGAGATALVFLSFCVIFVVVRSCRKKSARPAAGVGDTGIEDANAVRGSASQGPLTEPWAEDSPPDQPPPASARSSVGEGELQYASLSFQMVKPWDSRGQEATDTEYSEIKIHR
T3 sequence (Q9NYZ4 17-363 limits assumed): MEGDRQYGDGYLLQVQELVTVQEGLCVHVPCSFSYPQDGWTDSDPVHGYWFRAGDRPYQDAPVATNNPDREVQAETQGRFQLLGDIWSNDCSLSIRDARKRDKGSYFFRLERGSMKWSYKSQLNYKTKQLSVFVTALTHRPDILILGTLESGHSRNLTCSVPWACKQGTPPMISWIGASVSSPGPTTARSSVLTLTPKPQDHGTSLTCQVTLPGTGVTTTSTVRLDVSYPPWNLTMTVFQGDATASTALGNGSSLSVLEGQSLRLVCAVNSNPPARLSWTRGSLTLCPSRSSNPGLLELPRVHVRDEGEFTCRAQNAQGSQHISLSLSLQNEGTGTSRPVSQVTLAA
extra-cellular domain of Siglec-9 fused to a C-terminal his-tag, sequence (Q9Y336 18-348 limits assumed): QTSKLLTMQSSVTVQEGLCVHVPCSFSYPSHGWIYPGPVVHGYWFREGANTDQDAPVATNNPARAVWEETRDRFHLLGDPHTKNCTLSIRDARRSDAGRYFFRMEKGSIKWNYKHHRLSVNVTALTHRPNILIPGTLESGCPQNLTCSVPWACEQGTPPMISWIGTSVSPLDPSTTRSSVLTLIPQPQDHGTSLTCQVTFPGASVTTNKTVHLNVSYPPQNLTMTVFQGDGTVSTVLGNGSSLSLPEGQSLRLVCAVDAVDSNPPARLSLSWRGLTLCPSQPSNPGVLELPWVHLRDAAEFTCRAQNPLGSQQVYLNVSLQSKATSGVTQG
Siglec-9 protein (construct not stated; antigen of Examples 3 and 4), sequence (Q9Y336 18-348 limits assumed): as above

- binding result [1]: no binding (tested: 5 µg/ml)
- binding result [2]: no binding (tested: 5 µg/ml)
- EC50 (read off the curve) [3]: ~0.06 nM
B1: comparative monoclonal antibody mAbA (WO 2017/153433), mouse-human chimera (antibody, human IgG1, kappa, V domains shown)
VH: QVQLQQPGAELVKPGSPVKLSCKASYFTFTSYWMHWVRQRPGQGLEWIGEINPSNGHTNYNEKFESKATLTVDRSSSTAYMQLSSLTSEDSAVFYCANGVESYDFDDALDYWGQGTSVTVSS
VL: DIQMTQTTSSLSASLGDRVTISCRASQDINNYLNWYQQKPDGTIKLLIYYTSRLHSGVPSRFSGSGSGTDYSLTINNLEQEDIATYFCQQGNTLPFTFGGGTKLEIKR

- binding result [4]: binds
- binding result [5]: no binding (tested: 5 µg/ml)
- fold stronger binding than 5C6 [6]: ~10 fold
- EC50 [7]: 0.1 nM
- binding result [8]: no binding (tested: 5 µg/ml)
- EC50 [9]: 0.4 nM
B2: monoclonal antibody 224B1 (rabbit) (antibody, V domains shown)
VH: QSVEESGGRLVTPETPLTLTCTASGFSLSSYYMSWVRQAPGKGLEWIGYIWTDGSAHYATWTKGRFTISKTSSTTVDLKITSPTTEDTATYFCVRANSGSHTYIEKFNLWGPGTLVTVSS
VL: DVVMTQTPASVEATVGGSVTIKCQASPSINDELSWYQQKPGQRPTLLIYEASALESGVPSRFKGSGSGTEFTLTIGDLECADAATYYCQCTYGSRSDISYGNTFGGGTEVVVKG
